Test [1] addresses HLA-A0201 (human). Briefly: competition with 125I-labelled probe peptide, purified HLA.
A further test addresses HLA-DRB1*0101 (human). Briefly: competition vs 125I-labelled probe peptide, purified HLA-DR.
The target in test [2] is HLA-B0702 (human).
The target of test [3] is HLA-A*0201 (human). Briefly: competition with radiolabeled probe peptide for purified soluble HLA-A*0201.
The target in test [4] is HLA-A0201 (human). Nature of the test: competition vs 125I probe peptide, purified HLA-A*0201.
Test [5] deals with HLA-B0702 (human). Briefly: competition vs 125I probe peptide, purified HLA.
The next test deals with HLA-B*0702 (human). Nature of the test: competition with 125I-labeled probe peptide, purified HLA.
Test [6] has as its target HLA-B0702 (human). Nature of the test: competition with 125I-labelled probe peptide on purified soluble HLA. The settings on record: remark: other sources report otherwise.
The target of test [7] is HLA-A*0201 (human). Nature of the test: competition binding, purified soluble HLA, 125I-labelled probe peptide.
Where [8] appears, read: remark: other sources report otherwise.

Where two headings read alike, the source gives them in different places.

B1: … (peptide)
peptide: DLCGSVFLV
modifications: not checked
Regarding B1, the Ki (usually a dissociation constant, usually derived from enzyme kinetics or from competition with a known ligand) with HLA-A0201 (human) [1] (setting [8]) is 789 nM.

B2: … (SEQ ID NO 2166) (peptide)
peptide: LAGYGAGVAGALVAF
modifications: not checked
Regarding B2, the IC50 – broadly, the point on the concentration scale where inhibition reaches its midpoint – with HLA-DRB1*0101 (human) (setting [8]) is 137 nM.

B3: … (peptide)
peptide: APPPSWDQM
modifications: not checked
The molecule B3 had an inhibition constant (Ki) in the test with HLA-B0702 (human) [2] (setting [8]) below 1000 nM.

B4: … (SEQ ID NO 2157) (peptide)
peptide: GYKVLVLNPSVAATL
modifications: not checked
In the case of B4, the IC50 with HLA-DRB1*0101 (human) was found to be 8.4 nM.

B5: … (peptide)
peptide: VILDSFDPL
modifications: not checked
The molecule B5 showed an inhibition constant (Ki) with HLA-A2402 (human) above 20000 nM.

B6: … (SEQ ID NO 2226) (peptide)
peptide: TTIMAKNEVFCVQPE
modifications: not checked
On to B6, for which the IC50 in the test with HLA-DRB1*0101 (human) (setting [8]) came out at 3730 nM. In other words, the single-digit micromolar range.

B7: … (peptide)
peptide: CLVDYPYRL
modifications: not checked
The molecule B7 registered an IC50 with HLA-A*0201 (human) [3] of 437 nM. In the test with HLA-A0201 (human) [1], this molecule gave an inhibition constant (Ki) of 437 nM.

B8: … (SEQ ID NO 2105) (peptide)
peptide: ADLMGYIPLVGAPLG
modifications: not checked
B8: in the test with HLA-DRB1*0101 (human) (setting [8]), the concentration for half-maximal inhibition (IC50) stood at 8330 nM. In other words, the single-digit micromolar range.

B9: … (peptide)
peptide: YIPLVGAPL
modifications: not checked
In turn, B9 gave an IC50 with HLA-A*0201 (human) [3] (setting [8]) of 337 nM. Besides, in the test with HLA-A0201 (human) [4] (setting [8]), the Ki turned out to be 77 nM.

B10: … (peptide)
peptide: YAAQGYKVLV
modifications: not checked
Molecule B10 yielded a Ki with HLA-Cw0602 (human) of 9210 nM. This lies in the single-digit micromolar range.

B11: … (peptide)
peptide: DQRPYCWHY
modifications: not checked
As to B11, the inhibition constant Ki with HLA-Cw0702 (human) came out at 710 nM. In other words, the sub-micromolar range.

B12: … (peptide)
peptide: TPAETSVRL
modifications: not checked
In the test with HLA-B0702 (human) [2], B12 came in with a Ki below 1000 nM.

B13: … (peptide)
peptide: YRRCRASGVL
modifications: not checked
For B13, the Ki with HLA-Cw0702 (human) came out at 83 nM.

B14: … (peptide)
peptide: VAYYRGLDV
modifications: not checked
B14 displayed a Ki with HLA-Cw0602 (human) of 231 nM.

B15: … (peptide)
peptide: GMFDSSVLC
modifications: not checked
In the case of B15, in the test with HLA-A*0201 (human) [3], the IC50 was found to be 114 nM. Further, in the test with HLA-A0201 (human) [4], the inhibition constant (Ki) amounted to 71 nM.

B16: … (peptide)
peptide: TYSTYGKFL
modifications: not checked
For B16, the Ki was 239 nM in the test with HLA-Cw0702 (human) and 4860 nM with HLA-Cw0602 (human) (setting [8]).

B17: … (peptide)
peptide: APTGSGKST
modifications: not checked
In turn, B17 showed a Ki in the test with HLA-B0702 (human) [5] of 370 nM. In addition, the IC50 with HLA-B*0702 (human) turned out to be 370 nM.

B18: … (peptide)
peptide: IIMYAPTLW
modifications: not checked
B18 displayed a Ki in the test with HLA-A2402 (human) of 0.8 nM.

B19: … (peptide)
peptide: GRKPARLIV
modifications: not checked
B19 showed an inhibition constant (Ki) with HLA-Cw0602 (human) of 2040 nM.

B20: … (peptide)
peptide: KVLVLNPSV
modifications: not checked
In the test with HLA-A*0201 (human) [3], B20 returned a concentration for half-maximal inhibition (IC50) of 50 nM. Moreover, the inhibition constant (Ki) with HLA-A0201 (human) [4] turned out to be 50 nM.

B21: … (peptide)
peptide: RLYIGGPLT
modifications: not checked
In the test with HLA-A0201 (human) [4], B21 registered a Ki of 536 nM.

B22: … (peptide)
peptide: NAVAYYRGL
modifications: not checked
In turn, B22 came in with an inhibitory constant (Ki) with HLA-Cw0602 (human) (setting [8]) of 10800 nM.

B23: … (SEQ ID NO 2245) (peptide)
peptide: WESVFTGLTHIDAHF
modifications: not checked
In turn, B23 gave an IC50 with HLA-DRB1*0101 (human) (setting [8]) of 122 nM.

B24: … (peptide)
peptide: DLMGYIPLV
modifications: not checked
In the test with HLA-A*0201 (human) [3] (setting [8]), B24 came in with an IC50 of 83 nM. The same molecule came in with an inhibition constant (Ki) with HLA-A0201 (human) [1] (setting [8]) of 36 nM.

B25: … (SEQ ID NO 2111) (peptide)
peptide: ASQLSAPSLKATCTT
modifications: not checked
Regarding B25, the 50% inhibitory concentration (IC50) with HLA-DRB1*0101 (human) came out at 329 nM.

B26: … (peptide)
peptide: LPRRGPRLG
modifications: not checked
The molecule B26 yielded a half-maximal inhibitory concentration (IC50) with HLA-B*0702 (human) of 124 nM.

B27: … (SEQ ID NO 2199) (peptide)
peptide: RAAVCTRGVAKAVDF
modifications: not checked
Consider B27, for which the IC50 in the test with HLA-DRB1*0101 (human) turned out to be 619 nM.

B28: … (SEQ ID NO 2110) (peptide)
peptide: ASCLRKLGVPPLRVW
modifications: not checked
Turning to B28, the IC50 in the test with HLA-DRB1*0101 (human) worked out at 4.9 nM. Compared with the last molecule, the IC50 is about 130-fold lower.

B29: … (SEQ ID NO 2153) (peptide)
peptide: GSSYGFQYSPGQRVE
modifications: not checked
Consider B29, for which the IC50 in the test with HLA-DRB1*0101 (human) (setting [8]) came out at 11 nM.

B30: … (peptide)
peptide: QIVGGVYLL
modifications: not checked
The molecule B30 registered an IC50 with HLA-A*0201 (human) [3] of 228 nM.

B31: … (peptide)
peptide: APLGGAARA
modifications: not checked
Take B31: in the test with HLA-B0702 (human) [5], the Ki amounted to 115 nM. This molecule had an IC50 with HLA-B*0702 (human) of 115 nM.

B32: … (peptide)
peptide: APTLWARMIL
modifications: not checked
On to B32, for which the inhibition constant (Ki) with HLA-B0702 (human) [5] (setting [8]) and with HLA-B0702 (human) [6] was 1 nM throughout.

B33: … (peptide)
peptide: FLLALLSCL
modifications: not checked
Consider B33, for which the IC50 with HLA-A*0201 (human) [3] (setting [8]) came out at 136 nM.

B34: … (SEQ ID NO 2192) (peptide)
peptide: PQTFQVAHLHAPTGS
modifications: not checked
In the test with HLA-DRB1*0101 (human), B34 displayed an IC50 of 22 nM. This lies in the double-digit nanomolar range.

B35: … (peptide)
peptide: SPGQRVEFL
modifications: not checked
On to B35, for which, in the test with HLA-B0702 (human) [2] (setting [8]), the inhibition constant Ki is below 1000 nM.

B36: … (peptide)
peptide: YQATVCARA
modifications: not checked
Take B36: the IC50 with HLA-A*0201 (human) [7] came out at 20 nM. In addition, the Ki with HLA-A0201 (human) [4] was 20 nM.

B37: … (peptide)
peptide: GLTHIDAHF
modifications: not checked
B37 had an inhibition constant Ki with HLA-A2402 (human) of 3 nM. In other words, the single-digit nanomolar range.

B38: … (peptide)
peptide: LPRRGPRLGV
modifications: not checked
Take B38: the inhibition constant Ki with HLA-B0702 (human) [5] (setting [8]) and in the test with HLA-B0702 (human) [6] was 3 nM each time.

B39: … (SEQ ID NO 2125) (peptide)
peptide: DVVVVATDALMTGYT
modifications: not checked
As to B39, in the test with HLA-DRB1*0101 (human) (setting [8]), the IC50 worked out at 456 nM.

B40: … (SEQ ID NO 2155) (peptide)
peptide: GVNYATGNLPGCSFS
modifications: not checked
In turn, B40 registered a half-maximal inhibitory concentration (IC50) with HLA-DRB1*0101 (human) of 4560 nM.

B41: … (peptide)
peptide: IMACMSADL
modifications: not checked
With B41, in the test with HLA-A*0201 (human) [7] (setting [8]), the IC50 turned out to be 66 nM. In the test with HLA-A0201 (human) [4] (setting [8]), this molecule displayed an inhibition constant Ki of 66 nM.

B42: … (peptide)
peptide: TLWARMILM
modifications: not checked
For the molecule B42, in the test with HLA-A0201 (human) [4], the Ki came to 8 nM.

B43: … (peptide)
peptide: YYRGLDVSVI
modifications: not checked
On to B43, for which the Ki in the test with HLA-A2402 (human) was found to be 2 nM; with HLA-Cw0702 (human) it was 87 nM.

B44: … (peptide)
peptide: APTLWARMI
modifications: not checked
In the test with HLA-B0702 (human) [2] (setting [8]), B44 gave a Ki below 1000 nM.

B45: … (peptide)
peptide: YRRCRASGV
modifications: not checked
Molecule B45 displayed an inhibitory constant (Ki) with HLA-Cw0602 (human) of 634 nM. This counts as sub-micromolar.

B46: … (peptide)
peptide: NLPGCSFSI
modifications: not checked
B46 registered an IC50 with HLA-A*0201 (human) [3] (setting [8]) of 83 nM. Moreover, the Ki was determined as 8 nM with HLA-A2402 (human) (setting [8]) and 70 nM with HLA-A0201 (human) [4] (setting [8]).

B47: … (peptide)
peptide: NIIMYAPTL
modifications: not checked
B47 registered an IC50 in the test with HLA-A*0201 (human) [7] of 70 nM. Moreover, the inhibition constant (Ki) in the test with HLA-A0201 (human) [4] came to 70 nM.

B48: … (SEQ ID NO 2137) (peptide)
peptide: GARLVVLATATPPGS
modifications: not checked
Molecule B48 had a concentration for half-maximal inhibition (IC50) in the test with HLA-DRB1*0101 (human) (setting [8]) of 173 nM.

B49: … (peptide)
peptide: VTLTHPITK
modifications: not checked
Turning to B49, the inhibition constant (Ki) with HLA-A0301 (human) (setting [8]) is below 1000 nM.

B50: … (peptide)
peptide: GRRGIYRFV
modifications: not checked
Molecule B50 gave a Ki with HLA-Cw0602 (human) of 576 nM.

B51: … (peptide)
peptide: MALYDVVST
modifications: not checked
For B51, the Ki in the test with HLA-A0201 (human) [4] was found to be 1140 nM.

B52: … (peptide)
peptide: ALAHGVRVL
modifications: not checked
B52: the inhibition constant (Ki) with HLA-B0702 (human) [5] (setting [8]) is 7950 nM; with HLA-A0201 (human) [1] (setting [8]) it was 627 nM.

B53: … (peptide)
peptide: ATLGFGAYM
modifications: not checked
B53 returned a Ki with HLA-B0702 (human) [5] of 13000 nM. That is a double-digit micromolar value.

B54: … (peptide)
peptide: AAYAAQGYK
modifications: not checked
With B54, the Ki with HLA-A0301 (human) is below 1000 nM.

B55: … (SEQ ID NO 2213) (peptide)
peptide: SKGWRLLAPITAYAQ
modifications: not checked
In turn, B55 displayed a half-maximal inhibitory concentration (IC50) in the test with HLA-DRB1*0101 (human) of 0.4 nM.

B56: … (peptide)
peptide: RMILMTHFF
modifications: not checked
B56: the Ki with HLA-A2402 (human) (setting [8]) was found to be 6 nM.

B57: … (peptide)
peptide: YLFNWAVRT
modifications: not checked
As to B57, in the test with HLA-A*0201 (human) [7], the IC50 is 29 nM. The molecule also displayed a Ki in the test with HLA-A0201 (human) [4] of 29 nM.

B58: … (peptide)
peptide: RKPARLIVF
modifications: not checked
In the test with HLA-Cw0602 (human), B58 gave an inhibition constant (Ki) of 8280 nM. In other words, the single-digit micromolar range.

B59: … (peptide)
peptide: VVSTLPQAV
modifications: not checked
B59 returned an inhibition constant (Ki) with HLA-A0201 (human) [4] of 884 nM.

For the origin of these results see patent publication US20060093617A1.
